2 substances from paper PMC10858898 can be followed below.

Where “and” joins values, the source holds several entries; their conditions need not be identical. Identical values can stand only once.

The koff is a measure of how fast the partners let go of each other.

For assay [1], the target named is MprE7-TH1 chimeric proteusin peptide. Nature of the assay: NMR titration; unlabeled SrpI titrated into 42.1 uM 15N-labeled MprE7-TH1, MprE7-TH1:SrpI molar ratios 1:0 to 1:1, FAD at 1:1 with SrpI; 100 mM NaCl, 20 mM sodium phosphate pH 7.5, 10% D2O, 25 °C; TITAN 2D lineshape analysis, two-state binding model; apparent.
Assay [2] has the same target. Nature of the assay: NMR titration; unlabeled SrpI titrated into 42.1 µM 15N-MprE7-TH1, MprE7-TH1:SrpI molar ratios 1:0 to 1:1, FAD 1:1 with SrpI; 100 mM NaCl, 20 mM sodium phosphate pH 7.5, 10% D2O; 25 °C, 800 MHz; TITAN 2D lineshape analysis with a two-state binding model; apparent KD; fits of subsets of the seven residues.

With “SrpI brominase (flavin-dependent RiPP halogenase) (enzyme)”, in assay [1], the Kd came to 24.9 µM and the koff turned out to be 3.7 s⁻¹.

Regarding SrpI brominase (enzyme), the Kd in assay [2] was 21.9 µM and 36.9 µM and 22 µM.
